In patent US20180256644A1:
Numbering of substitutions follows the chain as printed. In names and notes the source's numbering stands. Blank lines part the entries; values can stand above or below the molecule they belong to.

Legend:
[1] = target: human PD-L1, full-length, expressed on Expi293F cells (human) (UniProt Q9NZQ7); assay: flow cytometry, Expi293 cells expressing human PD-L1
[2] = target: human PD-L1 (full-length, expressed on transfected Expi293F cells) (human) (UniProt Q9NZQ7); assay: flow cytometry, transfected Expi293 cells
[3] = target: human CD28 (full-length, expressed on transfected Expi293F cells) (human) (UniProt P10747); assay: flow cytometry, transfected Expi293 cells
[4] = target: human PD-L1 (full-length, expressed on transfected Expi293F cells) (human) (UniProt Q9NZQ7); assay: flow cytometry; ratio to WT parental stack
[5] = target: human CD28 (full-length, expressed on transfected Expi293F cells) (human) (UniProt P10747); assay: flow cytometry; ratio to WT parental stack
[6] = target: human CTLA4, full-length, expressed on Expi293F cells (human) (UniProt P16410); assay: flow cytometry, Expi293 cells expressing human CTLA-4
[7] = target: human CD28 (full-length, expressed on transfected Expi293F cells) (human) (UniProt P10747); assay: flow cytometry; ratio to WT ICOSL ECD-Fc

Chain of UniProt P16410 (P16410 36-223): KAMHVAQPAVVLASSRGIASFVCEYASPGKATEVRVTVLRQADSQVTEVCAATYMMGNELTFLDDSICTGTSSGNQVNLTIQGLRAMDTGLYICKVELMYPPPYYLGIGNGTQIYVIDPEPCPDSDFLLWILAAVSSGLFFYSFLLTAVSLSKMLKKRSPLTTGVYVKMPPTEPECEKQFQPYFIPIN

MFI [1]: 9 MFI
MFI parental ratio (fold of WT CD80) [1]: 0.13
Molecule: CD80 variant A91G/S103P ECD-Fc fusion

MFI [2]: 2080 MFI
Molecule: CD80 WT / CD86 WT stacked IgV-Fc (Fc fusion)

MFI [3]: 6340 MFI
Molecule: NKp30 WT / ICOSL WT stacked IgV-Fc (Fc fusion)

MFI [2]: 2970 MFI
Molecule: ICOSL WT / CD80 WT stacked IgV-Fc (Fc fusion)

MFI [3]: 1690 MFI
Molecule: NKp30 WT / CD86 WT stacked IgV-Fc (Fc fusion)

MFI [3]: 1630 MFI
Molecule: CD80 WT / CD80 WT stacked IgV-Fc (Fc fusion)

MFI [3]: 7920 MFI
Molecule: ICOSL WT / Nkp30 WT stacked IgV-Fc (Fc fusion)

MFI [2]: 2660 MFI
MFI [3]: 1230 MFI
Molecule: CD80 WT / ICOSL WT stacked IgV-Fc (Fc fusion)

MFI [2]: 2110 MFI
WT parental MFI ratio [4]: 1.39
Molecule: CD86 Q35H/H90L/Q102H / CD80 A12T/H18L/N43V/F59L/E77K/P109S/I118T stacked IgV-Fc (Fc fusion)

MFI [3]: 938 MFI
WT parental MFI ratio [5]: 0.57
Molecule: CD80 I67T/L70Q/A91G/T120S / CD80 E88D/K89R/D90K/A91G/F92Y/K93R stacked IgV-Fc (Fc fusion)

MFI [6]: 14 MFI
MFI parental ratio (fold of WT CD80) [6]: 0.07
B1: CD80 variant L70Q/A91G/T110A/T120S/T130A ECD-Fc fusion (Fc fusion)
chain: VIHVTKEVKEVATLSCGHNVSVEELAQTRIYWQKEKKMVLTMMSGDMNIWPEYKNRTIFDITNNLSIVIQALRPSDEGTYECVVLKYEKDGFKREHLAEVTLSVKADFPAPSISDFEIPSSNIRRIICSASGGFPEPHLSWLENGEELNAINTTVSQDPETELYAVSSKLDFNMTTNHSFMCLIKYGHLRVNQTFNWNTTKQEHFPDNAAAEPKSSDKTHTCPPCPAPELLGGPSVFLFPPKPKDTLMISRTPEVTCVVVDVSHEDPEVKFNWYVDGVEVHNAKTKPCEEQYGSTYRCVSVLTVLHQDWLNGKEYKCKVSNKALPAPIEKTISKAKGQPREPQVYTLPPSREEMTKNQVSLTCLVKGFYPSDIAVEWESNGQPENNYKTTPPVLDSDGSFFLYSKLTVDKSRWQQGNVFSCSVMHEALHNHYTQKSLSLSPGK

MFI [1]: 9 MFI
MFI parental ratio (fold of WT CD80) [1]: 0.13
B2: CD80 variant V20L/L70Q/A91S/T120S/T130A ECD-Fc fusion (Fc fusion)
chain: B1 chain with V20L, G91S, A110T

MFI parental ratio [7]: 0.89
B3: ICOSL variant ECD-Fc F120S/Y152H/N201S (Fc fusion)
chain: DTQEKEVRAMVGSDVELSCACPEGSRFDLNDVYVYWQTSESKTVVTYHIPQNSSLENVDSRYRNRALMSPAGMLRGDFSLRLFNVTPQDEQKFHCLVLSQSLGFQEVLSVEVTLHVAANSSVPVVSAPHSPSQDELTFTCTSINGYPRPNVHWINKTDNSLLDQALQNDTVFLNMRGLYDVVSVLRIARTPSVNIGCCIESVLLQQNLTVGSQTGNDIGERDKITENPVSTGEKNAATAAAEPKSSDKTHTCPPCPAPELLGGPSVFLFPPKPKDTLMISRTPEVTCVVVDVSHEDPEVKFNWYVDGVEVHNAKTKPCEEQYGSTYRCVSVLTVLHQDWLNGKEYKCKVSNKALPAPIEKTISKAKGQPREPQVYTLPPSREEMTKNQVSLTCLVKGFYPSDIAVEWESNGQPENNYKTTPPVLDSDGSFFLYSKLTVDKSRWQQGNVFSCSVMHEALHNHYTQKSLSLSPGK
